This note sets out measurements from publication PMC10170137 (Nature Communications, 2023).

Data set [1] has as its target T1, EcGapA (Escherichia coli, UniProt P0A9B2).
T1 construct: gene gapA
Put plainly: Nash assay of formaldehyde; coupled to EcAckA. In kind it is biochemical. To be noted: formyl phosphate made in situ by 2 µM EcAckA from 50 mM ammonium formate and 5 mM ATP; 250 µM NAD(P)H, 1 mM CoA, 10 mM MgCl2, MOPS-KOH pH 7.0, 30 °C.

For data set [2], the target named is T2, EcArgC (Escherichia coli, UniProt P11446).
T2 construct: gene argC
T2 sequence (P11446 1-334): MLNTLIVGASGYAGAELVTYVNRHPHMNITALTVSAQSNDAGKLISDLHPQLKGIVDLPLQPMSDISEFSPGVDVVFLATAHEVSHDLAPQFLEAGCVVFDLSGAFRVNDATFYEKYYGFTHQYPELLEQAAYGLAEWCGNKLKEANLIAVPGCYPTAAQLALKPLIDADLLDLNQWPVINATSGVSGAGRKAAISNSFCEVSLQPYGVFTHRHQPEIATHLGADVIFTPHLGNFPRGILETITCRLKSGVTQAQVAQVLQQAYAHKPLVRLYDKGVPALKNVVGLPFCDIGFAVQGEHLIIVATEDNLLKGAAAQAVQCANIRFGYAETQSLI
Description: Nash assay of formaldehyde; coupled to EcAckA. In kind it is biochemical. The conditions noted are these: formyl phosphate made in situ by 2 µM EcAckA from 50 mM ammonium formate and 5 mM ATP; 250 µM NAD(P)H, 1 mM CoA, 10 mM MgCl2, MOPS-KOH pH 7.0, 30 °C.

The target of data set [3] is T3, EcProA (Escherichia coli, UniProt P07004).
T3 construct: gene proA
T3 sequence (P07004 1-417): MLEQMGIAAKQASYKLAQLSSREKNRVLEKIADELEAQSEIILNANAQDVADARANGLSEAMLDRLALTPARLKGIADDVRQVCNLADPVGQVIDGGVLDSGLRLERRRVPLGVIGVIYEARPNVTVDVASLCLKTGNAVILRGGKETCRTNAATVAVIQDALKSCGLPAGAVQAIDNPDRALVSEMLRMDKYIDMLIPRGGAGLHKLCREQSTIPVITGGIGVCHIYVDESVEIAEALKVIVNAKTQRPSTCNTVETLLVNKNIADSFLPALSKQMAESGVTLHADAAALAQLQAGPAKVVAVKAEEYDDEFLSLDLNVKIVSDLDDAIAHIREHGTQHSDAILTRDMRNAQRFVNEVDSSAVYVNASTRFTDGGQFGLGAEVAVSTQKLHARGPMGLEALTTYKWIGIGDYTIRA
Description: Nash assay of formaldehyde; coupled to EcAckA. The format is biochemical. The conditions noted are these: formyl phosphate made in situ by 2 µM EcAckA from 50 mM ammonium formate and 5 mM ATP; 250 µM NAD(P)H, 1 mM CoA, 10 mM MgCl2, MOPS-KOH pH 7.0, 30 °C.

In data set [4] the target is T4, EcASD (Escherichia coli, UniProt P0A9Q9).
T4 construct: gene asd
T4 sequence (P0A9Q9 1-367): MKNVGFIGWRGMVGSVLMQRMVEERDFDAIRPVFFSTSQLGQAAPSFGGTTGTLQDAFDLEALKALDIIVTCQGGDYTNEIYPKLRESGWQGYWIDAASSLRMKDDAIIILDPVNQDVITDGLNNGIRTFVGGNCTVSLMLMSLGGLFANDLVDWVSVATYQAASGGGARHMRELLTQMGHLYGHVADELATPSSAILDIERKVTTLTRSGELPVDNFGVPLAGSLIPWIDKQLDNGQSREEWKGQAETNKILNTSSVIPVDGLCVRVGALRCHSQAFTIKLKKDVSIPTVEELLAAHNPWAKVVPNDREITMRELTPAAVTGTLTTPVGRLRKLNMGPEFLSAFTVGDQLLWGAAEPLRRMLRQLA
Put plainly: Nash assay of formaldehyde; coupled to EcAckA. The format is biochemical. The conditions noted are these: formyl phosphate made in situ by 2 µM EcAckA from 50 mM ammonium formate and 5 mM ATP; 250 µM NAD(P)H, 1 mM CoA, 10 mM MgCl2, MOPS-KOH pH 7.0, 30 °C.

Data set [5] deals with T5, DaArgC (Denitrovibrio acetiphilus, UniProt D4H3H4, G182V/L233I/S178V).
T5 construct: gene argC; dimer
Put plainly: Nash assay of formaldehyde, inhibition of formyl phosphate reductase activity; coupled to EcAckA. The format is biochemical. The conditions noted are these: read-out: N-acetyl-γ-glutamate / IC50. From the text:
(§1) Nash assay of formaldehyde, inhibition of formyl phosphate reductase activity; coupled to EcAckA on DaArgC

The target of data set [6] is T6, DaArgC (Denitrovibrio acetiphilus, UniProt D4H3H4).
T6 construct: gene argC; dimer
T6 sequence (D4H3H4 1-334): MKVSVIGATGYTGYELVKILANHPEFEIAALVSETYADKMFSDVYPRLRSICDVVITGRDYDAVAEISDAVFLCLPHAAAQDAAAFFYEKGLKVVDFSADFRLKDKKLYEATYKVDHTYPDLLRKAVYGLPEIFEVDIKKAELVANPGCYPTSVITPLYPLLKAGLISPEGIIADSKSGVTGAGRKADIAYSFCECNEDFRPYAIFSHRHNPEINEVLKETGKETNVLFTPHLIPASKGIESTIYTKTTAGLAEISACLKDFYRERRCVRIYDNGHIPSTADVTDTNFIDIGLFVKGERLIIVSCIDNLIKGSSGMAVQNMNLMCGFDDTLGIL
The data set is described as above. The format is biochemical. To be noted: read-out: N-acetyl-γ-glutamate / IC50.
Text: as §1

Data set [7] deals with the molecule itself. Put plainly: SEC; HiLoad 16/600 Superdex 200 pg in SEC buffer (75 mM KCl, 25 mM HEPES-KOH pH 7.8), loaded straight after Ni affinity purification, before crystallisation.
Substrate in data set [8]: NC(=O)C1=CN([C@@H]2O[C@H](COP(=O)(O)OP(=O)(O)OC[C@H]3O[C@@H](n4cnc5c(N)ncnc54)[C@H](OP(=O)(O)O)[C@@H]3O)[C@@H](O)[C@H]2O)C=CC1
Put plainly: Nash assay of formaldehyde, fluorescence; coupled to EcAckA. The format is biochemical, Denitrovibrio acetiphilus. To be noted: formyl phosphate made in situ by 10 µM EcAckA from 500 mM ammonium formate and 5 mM ATP, 10 mM MgCl2, MOPS-KOH pH 7.0, 30 °C, varied: cofactor. From the text: (§2) Nash assay of formaldehyde, fluorescence; coupled to EcAckA on DaArgC

Substrate in data set [9]: NC(=O)C1=CN([C@@H]2O[C@H](COP(=O)(O)OP(=O)(O)OC[C@H]3O[C@@H](n4cnc5c(N)ncnc54)[C@H](O)[C@@H]3O)[C@@H](O)[C@H]2O)C=CC1
The description is as above. In kind it is biochemical, Denitrovibrio acetiphilus. The conditions noted are these: formyl phosphate made in situ by 10 µM EcAckA from 250 mM ammonium formate and 5 mM ATP, 10 mM MgCl2, MOPS-KOH pH 7.0, 30 °C, varied: cofactor.
Text: as §2

Substrate in data set [10]: O=COP(=O)(O)O
Description: Nash assay of formaldehyde, initial slopes, synthetic formyl phosphate. In kind it is biochemical, Denitrovibrio acetiphilus. To be noted: 1 mM NADPH, 10 mM MgCl2, MOPS pH 7.0, 30 °C, freshly synthesized crude formyl phosphate. The source says:
Nash assay of formaldehyde, initial slopes, synthetic formyl phosphate on […]

T1 sequence (P0A9B2 2-331): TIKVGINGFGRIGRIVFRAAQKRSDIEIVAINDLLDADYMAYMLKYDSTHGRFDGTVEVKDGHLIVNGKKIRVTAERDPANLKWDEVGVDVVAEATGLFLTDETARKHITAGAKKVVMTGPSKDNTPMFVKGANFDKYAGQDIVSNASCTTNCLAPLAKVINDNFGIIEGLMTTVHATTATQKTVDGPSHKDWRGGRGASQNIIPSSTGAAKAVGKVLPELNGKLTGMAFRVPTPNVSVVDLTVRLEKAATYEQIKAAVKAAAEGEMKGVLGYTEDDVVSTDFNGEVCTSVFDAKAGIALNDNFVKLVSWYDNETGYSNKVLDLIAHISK

As for `O=COP(=O)(O)O` [formyl phosphate], the “Nash assay of formaldehyde; coupled to EcAckA” value in data set [1] is “EcArgC and EcGapA performed best under the chosen conditions”; in data set [2], “EcArgC and EcGapA performed best under the chosen conditions”; in data set [3], “(EcASD, EcArgC, EcGapA, EcProA), we detected FPR activity in all cases”; in data set [4] it was “(EcASD, EcArgC, EcGapA, EcProA), we detected FPR activity in all cases”.

Take `CC(=O)N[C@@H](CCC(=O)O)C(=O)O` [N-acetyl-γ-glutamate]: the IC50 in data set [5] was determined as 24.6 ± 7.9 mM; in data set [6] it was 5.1 ± 1 mM.

B1: Denitrovibrio acetiphilus N-acetyl-γ-glutamyl phosphate reductase (DaArgC), wild type (enzyme)
chain: MKVSVIGATGYTGYELVKILANHPEFEIAALVSETYADKMFSDVYPRLRSICDVVITGRDYDAVAEISDAVFLCLPHAAAQDAAAFFYEKGLKVVDFSADFRLKDKKLYEATYKVDHTYPDLLRKAVYGLPEIFEVDIKKAELVANPGCYPTSVITPLYPLLKAGLISPEGIIADSKSGVTGAGRKADIAYSFCECNEDFRPYAIFSHRHNPEINEVLKETGKETNVLFTPHLIPASKGIESTIYTKTTAGLAEISACLKDFYRERRCVRIYDNGHIPSTADVTDTNFIDIGLFVKGERLIIVSCIDNLIKGSSGMAVQNMNLMCGFDDTLGIL
notes: N-acetyl-γ-glutamyl phosphate reductase (ArgC) of Denitrovibrio acetiphilus; also called WT DaArgC; Denitrovibrio acetiphilus N-acetyl-γ-glutamyl phosphate dehydrogenase; source: E. coli BL21 (DE3), purified (Ni-Sepharose HisTrap FF, Superdex 200 SEC)
One may read the Km as the concentration of substrate that gives half-maximal velocity. As usually defined, the kcat is the number of substrate molecules converted per active site and unit of time at saturation. One may read the kcat/Km as the second-order rate constant that governs catalysis at low substrate concentration. Consider B1, for which the binding result in [7] is “binds”. For the same molecule, in [8], the Km was found to be 160 ± 20 µM, the kcat stood at 0.66 ± 0.03 s⁻¹ and the kcat/Km came out at 4100 M⁻¹ s⁻¹.

B2: DaArgC3, triple substitution variant (G182V, S178V, L233I) of Denitrovibrio acetiphilus N-acetyl-γ-glutamyl phosphate reductase (enzyme)
chain: MKVSVIGATGYTGYELVKILANHPEFEIAALVSETYADKMFSDVYPRLRSICDVVITGRDYDAVAEISDAVFLCLPHAAAQDAAAFFYEKGLKVVDFSADFRLKDKKLYEATYKVDHTYPDLLRKAVYGLPEIFEVDIKKAELVANPGCYPTSVITPLYPLLKAGLISPEGIIADSKVGVTVAGRKADIAYSFCECNEDFRPYAIFSHRHNPEINEVLKETGKETNVLFTPHIIPASKGIESTIYTKTTAGLAEISACLKDFYRERRCVRIYDNGHIPSTADVTDTNFIDIGLFVKGERLIIVSCIDNLIKGSSGMAVQNMNLMCGFDDTLGIL
notes: N-acetyl-γ-glutamyl phosphate reductase (ArgC) of Denitrovibrio acetiphilus with G182V, S178V and L233I; Found by iterative saturation mutagenesis of DaArgC; also called formyl phosphate reductase variant; source: E. coli BL21 (DE3), purified (Ni-Sepharose HisTrap FF, Superdex 200 SEC)
Take B2: the binding result in data set [7] is given as “binds”.

B3: DaArgC (Denitrovibrio acetiphilus DSM 12809; G182V/L233I/S178V) (protein)
chain: MKVSVIGATGYTGYELVKILANHPEFEIAALVSETYADKMFSDVYPRLRSICDVVITGRDYDAVAEISDAVFLCLPHAAAQDAAAFFYEKGLKVVDFSADFRLKDKKLYEATYKVDHTYPDLLRKAVYGLPEIFEVDIKKAELVANPGCYPTSVITPLYPLLKAGLISPEGIIADSKVGVTVAGRKADIAYSFCECNEDFRPYAIFSHRHNPEINEVLKETGKETNVLFTPHIIPASKGIESTIYTKTTAGLAEISACLKDFYRERRCVRIYDNGHIPSTADVTDTNFIDIGLFVKGERLIIVSCIDNLIKGSSGMAVQNMNLMCGFDDTLGIL
notes: dimer
In the case of B3, in [8], the Km worked out at 50 ± 10 µM, the kcat is 0.23 ± 0.02 s⁻¹ and the kcat/Km was determined as 4600 M⁻¹ s⁻¹. In addition, in [9], the Km amounted to 340 ± 50 µM, the turnover number (kcat) turned out to be 0.09 ± 0.00 s⁻¹ and the kcat/Km stood at 260 M⁻¹ s⁻¹. Also, in [10], the Km came to 18000 ± 7000 µM, the kcat amounted to 0.12 ± 0.02 s⁻¹ and the catalytic efficiency (kcat/Km) was found to be 4.6 M⁻¹ s⁻¹.

B4: DaArgC (Denitrovibrio acetiphilus DSM 12809; G182V) (protein)
chain: MKVSVIGATGYTGYELVKILANHPEFEIAALVSETYADKMFSDVYPRLRSICDVVITGRDYDAVAEISDAVFLCLPHAAAQDAAAFFYEKGLKVVDFSADFRLKDKKLYEATYKVDHTYPDLLRKAVYGLPEIFEVDIKKAELVANPGCYPTSVITPLYPLLKAGLISPEGIIADSKSGVTVAGRKADIAYSFCECNEDFRPYAIFSHRHNPEINEVLKETGKETNVLFTPHLIPASKGIESTIYTKTTAGLAEISACLKDFYRERRCVRIYDNGHIPSTADVTDTNFIDIGLFVKGERLIIVSCIDNLIKGSSGMAVQNMNLMCGFDDTLGIL
notes: dimer
Consider B4, for which, in data set [8], the Michaelis constant (Km) was found to be 40 ± 10 µM, the kcat was 0.14 ± 0.02 s⁻¹ and the kcat/Km is 3500 M⁻¹ s⁻¹. In [9], the Michaelis-Menten constant (Km) came to 280 ± 50 µM, the kcat turned out to be 0.08 ± 0.00 s⁻¹ and the specificity constant (kcat/Km) came to 280 M⁻¹ s⁻¹. In data set [10], the Km stood at 31000 ± 7000 µM, the kcat is 0.11 ± 0.01 s⁻¹ and the specificity constant (kcat/Km) came to 2.4 M⁻¹ s⁻¹.

B5: DaArgC (Denitrovibrio acetiphilus DSM 12809; G182V/S178V) (protein)
chain: MKVSVIGATGYTGYELVKILANHPEFEIAALVSETYADKMFSDVYPRLRSICDVVITGRDYDAVAEISDAVFLCLPHAAAQDAAAFFYEKGLKVVDFSADFRLKDKKLYEATYKVDHTYPDLLRKAVYGLPEIFEVDIKKAELVANPGCYPTSVITPLYPLLKAGLISPEGIIADSKVGVTVAGRKADIAYSFCECNEDFRPYAIFSHRHNPEINEVLKETGKETNVLFTPHLIPASKGIESTIYTKTTAGLAEISACLKDFYRERRCVRIYDNGHIPSTADVTDTNFIDIGLFVKGERLIIVSCIDNLIKGSSGMAVQNMNLMCGFDDTLGIL
notes: dimer
Turning to B5, the figures for the Km in [8], in [9] and in data set [10] were 60 ± 20 µM, 300 ± 40 µM and 38000 ± 9000 µM, respectively. In addition, the results for the catalytic constant (kcat) in data set [8], in data set [9] and in data set [10] were 0.26 ± 0.03 s⁻¹, 0.12 ± 0.00 s⁻¹ and 0.17 ± 0.02 s⁻¹, respectively. Further, the values for the catalytic efficiency (kcat/Km) in [8], in data set [9] and in data set [10] were 4300 M⁻¹ s⁻¹, 400 M⁻¹ s⁻¹ and 3.1 M⁻¹ s⁻¹, respectively.
